Blank lines part the entries; values can stand above or below the molecule they belong to. No end group written: not given here.
Assays:
RapF [1] = biological target: T1, RapF (Bacillus subtilis, UniProt P71002); format: binding, B. subtilis; conditions: wild-type RapF, at 12 µM PhrF; native PAGE titration
T1 construct: 6xHis (N, cleaved yes); made in house; host or cells: Escherichia coli BL21 RIL
Method: (§1) The formation of complexes was analyzed by native polyacrylamide gel electrophoresis (Native-PAGE), similarly to that described by Salinas et al.. Briefly, mixtures of RapF (WT and mutants), ComA (10 µM of each protein), or Phr peptides (0.5 mM), as indicated, were incubated in buffer A (200 mM NaCl, 50 mM Tris-HCl [pH 8.0]) at room temperature for 30 min, separated by Native-PAGE and visualized by Coomassie blue staining. The peptide binding constants for RapF, RapF^D194A, RapF^N227A, RapF^E303K, and RapF^E303A were calculated following the same approach. Reaction mixtures containing 20 µg of protein and peptide concentrations ranging from 50 nM to 1.2 mM in 20 µl of buffer A were incubated for 15 min at room temperature. Reactions were separated in 8% acrylamide native gel (100 V, 4°C, 2 h) and visualized by Coomassie blue staining. Free protein was quantified using the Multigauge V2.1 software (Fujifilm) and the fraction of bound protein was estimated by subtracting free protein from the input protein. Data were plotted as a fraction of the Phr bound protein versus the Phr concentration, and were analyzed by the Graphpad prism software. The midpoint of the transition was taken as the apparent Kd. To calculate the Kd values, at least three independent experiments were analyzed.

RapF^N227A [2] = biological target: T2, RapF^N227A (Bacillus subtilis, UniProt P71002, N227A); assay: Gel shift (native PAGE) titration, apparent Kd, RapF^N227A; format: binding, B. subtilis
T2 construct: 6xHis (N, cleaved yes); made in house; host or cells: Escherichia coli BL21 RIL
Method: as §1

RapF^D194A [3] = biological target: T3, RapF^D194A (Bacillus subtilis, UniProt P71002, D194A); assay: Gel shift (native PAGE) titration, apparent Kd, RapF^D194A; format: binding, B. subtilis
T3 construct: 6xHis (N, cleaved yes); made in house; host or cells: Escherichia coli BL21 RIL
Method: as §1

RapF^E303A [4] = biological target: T4, RapF^E303A (Bacillus subtilis, UniProt P71002, E303A); assay: Gel shift (native PAGE) titration, apparent Kd, RapF^E303A; format: binding, B. subtilis
T4 construct: 6xHis (N, cleaved yes); made in house; host or cells: Escherichia coli BL21 RIL
Method: as §1

RapF^E303K = biological target: T5, RapF^E303K (B. subtilis, UniProt P71002 1-381, E303K); assay: native gel or EMSA; Native-PAGE, Coomassie stained; RapF (WT or mutant) and ComA 10 µM each, Phr peptides 0.5 mM; buffer A (200 mM NaCl, 50 mM Tris-HCl pH 8.0), room temperature, 30 min; conditions: both partners purified
T5 construct: RapF of Bacillus subtilis with Glu303 changed to Lys, made from pPROEX-RapF by site-directed mutagenesis; Same construct as m1 with the point mutation; also called RapF Glu303Lys; source: E. coli BL21 RIL, purified as native RapF; not shown: His6, N-terminal, cleaved
T5 sequence: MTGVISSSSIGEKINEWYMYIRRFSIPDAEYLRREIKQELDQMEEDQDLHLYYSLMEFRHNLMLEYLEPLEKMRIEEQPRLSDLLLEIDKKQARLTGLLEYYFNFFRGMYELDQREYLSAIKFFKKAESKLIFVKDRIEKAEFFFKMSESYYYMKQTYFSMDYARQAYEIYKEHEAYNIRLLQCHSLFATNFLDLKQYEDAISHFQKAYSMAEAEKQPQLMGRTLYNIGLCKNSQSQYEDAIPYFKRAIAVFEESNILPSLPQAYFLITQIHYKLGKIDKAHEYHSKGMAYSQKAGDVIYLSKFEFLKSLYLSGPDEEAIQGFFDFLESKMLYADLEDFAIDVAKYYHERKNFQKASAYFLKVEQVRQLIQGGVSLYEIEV

RapF^D194A [5] = biological target: T6, RapF^D194A (B. subtilis, UniProt P71002 1-381, D194A); assay: as above; conditions: both partners purified
T6 construct: RapF of Bacillus subtilis with Asp194 changed to Ala, made from pPROEX-RapF by site-directed mutagenesis; Same construct as m1 with the point mutation; also called RapF Asp194Ala; source: E. coli BL21 RIL, purified as native RapF; not shown: His6, N-terminal, cleaved
T6 sequence: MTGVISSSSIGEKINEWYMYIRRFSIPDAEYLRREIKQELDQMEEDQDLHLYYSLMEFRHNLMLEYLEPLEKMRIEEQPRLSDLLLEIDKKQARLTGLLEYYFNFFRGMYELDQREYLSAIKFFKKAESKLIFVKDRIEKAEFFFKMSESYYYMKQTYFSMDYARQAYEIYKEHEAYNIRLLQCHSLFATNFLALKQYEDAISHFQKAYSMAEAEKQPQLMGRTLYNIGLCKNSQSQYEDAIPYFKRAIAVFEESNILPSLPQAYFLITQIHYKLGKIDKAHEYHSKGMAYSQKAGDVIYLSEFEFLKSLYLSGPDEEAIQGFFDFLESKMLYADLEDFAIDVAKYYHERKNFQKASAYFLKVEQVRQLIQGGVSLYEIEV

RapF [6] = biological target: T7, RapF (B. subtilis, UniProt P71002 1-381); assay: as above; conditions: both partners purified
T7 construct: RapF of Bacillus subtilis, amplified from genomic DNA and cloned in pPROEX-HTa; The text speaks of residues up to Val381, which fits the whole protein; also called wild-type RapF; native RapF; source: E. coli BL21 RIL, purified (HisTrap, TEV digestion, Superdex 200); not shown: His6, N-terminal, cleaved
T7 sequence: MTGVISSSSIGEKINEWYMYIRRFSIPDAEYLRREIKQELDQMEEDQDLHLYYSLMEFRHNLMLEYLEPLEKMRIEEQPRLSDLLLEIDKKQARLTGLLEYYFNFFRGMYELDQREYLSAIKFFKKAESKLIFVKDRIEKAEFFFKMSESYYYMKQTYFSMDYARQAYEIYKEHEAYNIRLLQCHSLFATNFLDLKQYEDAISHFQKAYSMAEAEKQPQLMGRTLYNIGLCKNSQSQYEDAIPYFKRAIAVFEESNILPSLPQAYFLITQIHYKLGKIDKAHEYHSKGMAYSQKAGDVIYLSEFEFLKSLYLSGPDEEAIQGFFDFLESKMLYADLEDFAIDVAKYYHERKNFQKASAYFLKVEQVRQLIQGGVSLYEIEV

RapF^N227A [7] = biological target: T8, RapF^N227A (B. subtilis, UniProt P71002 1-381, N227A); assay: as above; conditions: both partners purified
T8 construct: RapF of Bacillus subtilis with Asn227 changed to Ala, made from pPROEX-RapF by site-directed mutagenesis; Same construct as m1 with the point mutation; also called RapF Asn227 to Ala mutant; RapF^N277A (misprint in the text); source: E. coli BL21 RIL, purified as native RapF; not shown: His6, N-terminal, cleaved
T8 sequence: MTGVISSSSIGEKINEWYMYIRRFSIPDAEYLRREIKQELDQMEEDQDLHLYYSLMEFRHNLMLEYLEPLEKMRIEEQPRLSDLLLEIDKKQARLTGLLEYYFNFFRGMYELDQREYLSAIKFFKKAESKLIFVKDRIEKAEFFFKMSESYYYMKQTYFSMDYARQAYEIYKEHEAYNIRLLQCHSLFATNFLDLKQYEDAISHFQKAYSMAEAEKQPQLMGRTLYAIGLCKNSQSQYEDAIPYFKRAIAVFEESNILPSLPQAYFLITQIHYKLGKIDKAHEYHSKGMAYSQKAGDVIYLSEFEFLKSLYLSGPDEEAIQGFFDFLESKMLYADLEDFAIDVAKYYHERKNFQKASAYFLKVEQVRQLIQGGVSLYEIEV

RapF^E303A [8] = biological target: T9, RapF^E303A (B. subtilis, UniProt P71002 1-381, E303A); assay: as above; conditions: both partners purified
T9 construct: RapF of Bacillus subtilis with Glu303 changed to Ala, made from pPROEX-RapF by site-directed mutagenesis; Same construct as m1 with the point mutation; also called RapF Glu303Ala; source: E. coli BL21 RIL, purified as native RapF; not shown: His6, N-terminal, cleaved
T9 sequence: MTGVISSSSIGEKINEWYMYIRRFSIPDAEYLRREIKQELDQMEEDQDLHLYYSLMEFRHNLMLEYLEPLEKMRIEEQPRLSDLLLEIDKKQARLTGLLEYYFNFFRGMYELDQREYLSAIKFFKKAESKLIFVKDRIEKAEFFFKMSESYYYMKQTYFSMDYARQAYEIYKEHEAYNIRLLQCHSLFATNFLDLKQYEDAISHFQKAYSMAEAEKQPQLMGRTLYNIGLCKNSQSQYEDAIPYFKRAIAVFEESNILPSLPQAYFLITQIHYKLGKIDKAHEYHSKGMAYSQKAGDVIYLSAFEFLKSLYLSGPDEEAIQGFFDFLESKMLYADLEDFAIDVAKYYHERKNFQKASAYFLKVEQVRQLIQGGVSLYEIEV

Molecule: QRGMI [PhrF]
- RapF present in the free form (RapF [1]): less than 30%
- Kd (RapF^N227A [2]): > 1.2 mM
- Kd (RapF^D194A [3]): > 1.2 mM

Molecule: ERGMT [PhrC]
- Kd (RapF^E303A [4]): > 1.2 mM

- binding result (RapF^E303K): binds
- binding result (RapF^D194A [5]): binds
- binding result (RapF [6]): binds
- binding result (RapF^N227A [7]): binds
- binding result (RapF^E303A [8]): binds
B1: ComA (natural protein, B. subtilis, UniProt P14204 1-214, looked up)
chain: MKKILVIDDHPAVMEGTKTILETDSNLSVDCLSPEPSEQFIKQHDFSSYDLILMDLNLGGEVNGMELSKQILQENPHCKIIVYTGYEVEDYFEEAIRAGLHGAISKTESKEKITQYIYHVLNGEILVDFAYFKQLMTQQKTKPAPSSQKEQDVLTPRECLILQEVEKGFTNQEIADALHLSKRSIEYSLTSIFNKLNVGSRTEAVLIAKSDGVL
notes: also called RR ComA; full-length ComA; source: E. coli BL21 RIL, purified (HisTrap, TEV digestion, Superdex 200); not shown: His6, N-terminal, cleaved
